Changes are numbered by the printed parent chain.
B1: F26G19 (antibody, V domains shown)
VH: EVQLEESGTVLARPGASVKMSCKASGYTFTTYRMHWIKQRPGQGLEWIGAIYPGNSDTTYNQKFKDKAKLTAVTSTSSAYMELSSLTNEDSAVYFCTREGIPQLLRTLDYWGQGTSVTVSS
VL: DILMTQSPSSLSASLGERVSLTCRASQEISGYLSWLQEKPDGTIKRLIYAASTLDSGVPKRFSGSRSGSDYSLTISSLESEDFADYYCLQYVSYPWTFGGGTKLEIKR
B2: F26G6 (antibody, V domains shown)
VH: QVQLQQPGAELVKPGASVKVSCKASGYTFTNYWIHWVKQRPGQGLEWIGEINPGNGRTNYNGNFMNKATLTVDKSSNTAYMQLSSLTSEDSAVYHCARLDYWGQGTTLTVSS
VL: ELVMTQSPASLSVATGKKVTIRCISSTDIDDDMNWYQQKAGKPPKLLISEGNIFSPGVPSRFSSSGNGTDFVFTVENTLSEDVADNYCLQSDNMPFTFGSGTKLGIKR
B3: F26G8 (antibody, V domains shown)
VH: VQLLESGAELVKPGASVKVSCKASGYTFTSYWIHWVKQRPGQGLEWIGEINPSNGRTNYNGNFESKATLTVDKSSNTAYMHLSSLTYEDSAVYHCTRLDYWGQGTTLTVSS
VL: B2 VL with A14I, S26N, M33L, Y36S, Q38L, K42E, V75I, D85N, L89F, G105E
B4: F26G18 (antibody, V domains shown)
VH: LVQLEESGTVLPRPGASVKMSCKASGYTFTSYWMHWVKQRPGQGLEWIGAIYPGNSDTNYNQKFKGRATLTAVTSTSTASMELSSLTNEDSAVYYCTRDGYGSLYYYAMDFWGQGTSVTVSS
VL: ELVMTQSPSSLSASLGDRVTISCRASQDISNYLNWYQQKPDGTVKLLIYYTSRLHAGVPSRFSGSGSGTDYSLTISNLEQEDIATYFCQQGYTLPYTFGGGTKLEIKR

Key:
[1] = target: T1, SARS-HCoV spike protein (SARS-coronavirus (Tor-3 strain), UniProt P59594 14-1255); assay: ELISA, virus heated 100 C 10 min, coated at 32 ng/well
[2] = target: T1, SARS-HCoV spike protein; assay: ELISA, native gradient purified virus coated at 32 ng/well
[3] = target: T1, SARS-HCoV spike protein; assay: ELISA, OD on native virus against OD on heat-denatured virus

Row | Binder | ELISA OD 405 nm, Denatured Lysate [1] | ELISA OD 405 nm, Viral Lysate (native) [2] | O.D. Reduction, Fold [3] | O.D. Reduction, Percent [3]
1 | B1 | 0.253 OD 405 nm | 1.5 OD 405 nm | 6 fold | 83%
2 | B2 | 0.6 OD 405 nm | 1.6 OD 405 nm | 2.7 fold | 62%
3 | B3 | 0.497 OD 405 nm | 1.41 OD 405 nm | 2.8 fold | 29%
4 | B4 | 0.501 OD 405 nm | 1.81 OD 405 nm | 3.6 fold | 72%

From patent US20080081047A1 (published 2008)
